Test results published in patent publication US20100135997A1 (MEDGENE, published 2010).
Changes are numbered by the printed parent chain.

B1: soluble truncated variant of the Wild-Type ILT-2 molecule (domains D1 and D2) (receptor)
chain: MGHLPKPTLWAEPGSVITQGSPVTLRCQGGQETQEYRLYREKKTAPWITRIPQELVKKGQFPIPSITWEHAGRYRCYYGSDTAGRSESSDPLELVVTGAYIKPTLSAQPSPVVNSGGNVTLQCDSQVAFDGFILCKEGEDEHPQCLNSQPHARGSSRAIFSVGPVSPSRRWWYRCYAYDSNSPYEWSLPSDLLELLVL
notes: the entry carries the N-terminal Met used for bacterial expression; also called soluble wild-type ILT-2; soluble variant of wild-type ILT-2
B2: SEQ ID NO 107 (receptor)
chain: MGHLPKPTLWAEPGSVITMDQPVTLRCQGGQETQEYRLYREKKTAPWITRIPQELVKKGQFPIPSITWEHAGRYRCIGRSQTSQWSASSDPLELVVTGIYLAPTLSAQPSPVVNSGGNVTLQCDSQVAFDGFILCKEGEDEHPQCLNSQPHARGSSRAIFSVGPVSPSRRWWYRCYAYDSNSPYEWSLPSDLLELLVL
notes: mutated soluble two domain ILT-2
B3: SEQ ID NO 108 (receptor)
chain: B2 chain with M19L, D20G
notes: as for B2
B4: SEQ ID NO 67 (receptor)
chain: MHLPKPTLWAEPGSVITMDQPVTLRCQGGQETQEYRLYREKKTAPWITRIPQELVKKGQFPIPSITWEHAGRYRCYYGSDTSQWSASSDPLELVVTGVYIKPTLSAQPSPVVNSGGNVTLQCDSQVAFDGFILCKEGEDEHPQCLNSQPHARGSSRAIFSVGPVSPSRRWWYRCYAYDSNSPYEWSLPSDLLELDVDGC
notes: as for B2
B5: SEQ ID NO 111 (receptor)
chain: MHLPKPTLWAEPGSVITMDQPVTLRCQGGQETQEYRLYREKKTAPWITLIPQELVKKGQFPIPSITWEHAGRYRCYYGSDTSQWSASSDPLELVVTGVYIKPTLSAQPSPVVNSGGNVTLQCDSQVAFDGFILCKEGEDGHPQCLNSQPHARGSSRAIFSVGPVSPSRRWWYWCYAYDSNSPYEWSLPSDLLELDVDG
notes: as for B2
B6: SEQ ID NO 109 (receptor)
chain: B5 chain with L49R, G140E, W173R
notes: as for B2
B7: SEQ ID NO 117 (receptor)
chain: B5 chain with M18L, D19E, Q20S, L49R, G140E, W173R
notes: as for B2
B8: SEQ ID NO 125 (receptor)
chain: B5 chain with L49R, G140E, I158E, W173R
notes: as for B2
B9: SEQ ID NO 112 (receptor)
chain: B5 chain with K41R, L49R, G140E, W173R
notes: as for B2
B10: SEQ ID NO 118 (receptor)
chain: B5 chain with L49R, S79T, D80Q, S82A, Q83G, W84R, A86E, G140E, W173R
notes: as for B2
B11: SEQ ID NO 124 (receptor)
chain: B5 chain with L49R, G140E, L145D, W173R
notes: as for B2
B12: SEQ ID NO 121 (receptor)
chain: B5 chain with L49R, S79G, D80Q, T81E, S82G, Q83A, W84R, A86E, G140E, W173R
notes: as for B2
B13: SEQ ID NO 120 (receptor)
chain: MHLPKPTLWAEPGSVITMDQPVTLRCQGGQETQEYRLYREKKTAPWITRIPQELVKKGQFPIPSITWEHAGRYRCVIQRGTAGRSESSDPLELVVTGVYIKPTLSAQPSPVVNSGGNVTLQCDSQVAFDGFILCKEGEDEHPQCLNSQPHARGSSRAIFSVGPVSPSRRWWYRCYAYDSNSPYEWSLPSDLLELDVDG
notes: as for B2
B14: SEQ ID NO 126 (receptor)
chain: B5 chain with L49R, G140E, W173R, L187D
notes: as for B2
B15: SEQ ID NO 116 (receptor)
chain: B5 chain with M18L, D19Q, Q20S, L49R, G140E, W173R
notes: as for B2
B16: SEQ ID NO 115 (receptor)
chain: B5 chain with M18L, D19R, Q20S, L49R, G140E, W173R
notes: as for B2
B17: SEQ ID NO 113 (receptor)
chain: B5 chain with M18L, D19G, L49R, G140E, W173R
notes: as for B2
B18: SEQ ID NO 114 (receptor)
chain: B5 chain with M18L, D19G, Q20S, L49R, G140E, W173R
notes: as for B2
B19: SEQ ID NO 119 (receptor)
chain: B13 chain with V76M, I77Q, Q78Y, R79T, G80L
notes: as for B2
B20: SEQ ID NO 127 (receptor)
chain: B5 chain with L49R, C134S, G140E, C144S, W173R
notes: as for B2
B21: SEQ ID NO 122 (receptor)
chain: B5 chain with L49R, S79T, D80Q, G140E, W173R
notes: as for B2
B22: SEQ ID NO 60 (receptor)
chain: MGHLPKPTLWAEPGSVITMDQPVTLRCQGGQETQQYRLYREKKTAPWITRIPQELVKKGQFPIPSITWEHAGRYRCYYGSDTRQWSASSDPLELVVTGVYIKPTLSAQPSPVVNSGGNVTLQCDSQVAFDGFILCKEGEDDHPQCLNSQPHARGSSRAIFSVGPVSPSRRWRYRCYAYDSNSPYEWTRGSDLLELDVDG
notes: as for B2

Experiments:
[1] = biological target: T1, HLA-A*0201 loaded with the Carcinoembryonic antigen (CEA)-derived … peptide (biotin on the C-terminal biotinylation tag); assay: Biacore SPR, biotinylated pMHC immobilised on streptavidin
T1 construct: Soluble, biotinylated, immobilised on a streptavidin chip

[2] = biological target: T1, HLA-A*0201 loaded with the …; assay: Biacore SPR
Outline: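 pMHC complexes were immobilised in SPR flow cells through biotin-tag binding. Soluble ILT-like molecule was passed over the surfaces at constant flow rate and response recorded in RU for affinity and kinetic analysis.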

| Binder | Kd [1] [µM] | koff [1] [s⁻¹] | Kd [2] [nM] | koff [2] [s⁻¹] |
| --- | --- | --- | --- | --- |
| B1 | ~6 | 2.4 |  |  |
| B2 |  |  | ≤ 1000 | ≤ 2 |
| B3 |  |  | ≤ 1000 | ≤ 2 |
| B4 |  |  | ≤ 1000 | ≤ 2 |
| B5 |  |  | ≤ 1000 | ≤ 2 |
| B6 |  |  | ≤ 1000 | ≤ 2 |
| B7 |  |  | ≤ 1000 | ≤ 2 |
| B8 |  |  | ≤ 1000 | ≤ 2 |
| B9 |  |  | ≤ 1000 | ≤ 2 |
| B10 |  |  | ≤ 1000 | ≤ 2 |
| B11 |  |  | ≤ 1000 | ≤ 2 |
| B12 |  |  | ≤ 1000 | ≤ 2 |
| B13 |  |  | ≤ 1000 | ≤ 2 |
| B14 |  |  | ≤ 1000 | ≤ 2 |
| B15 |  |  | ≤ 1000 | ≤ 2 |
| B16 |  |  | ≤ 1000 | ≤ 2 |
| B17 |  |  | ≤ 1000 | ≤ 2 |
| B18 |  |  | ≤ 1000 | ≤ 2 |
| B19 |  |  | ≤ 1000 | ≤ 2 |
| B20 |  |  | ≤ 1000 | ≤ 2 |
| B21 |  |  | ≤ 1000 | ≤ 2 |
| B22 |  |  | ≤ 1000 | ≤ 2 |
